Measured values as given in the supplement of paper PMC10724198.
± gives the standard deviation of the averaged measurements.

Assays:
Saccharomyces cerevisiae [1] = experiment: protein stability index of tFT-peptide fusion (C-terminal peptide) (PSI (0-1 scale)); higher = more stable (slower turnover); details: genetic background: wild type; temperature: 30 C
Saccharomyces cerevisiae [2] = experiment: as above
Protocol: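 MPS profiling in S. cerevisiae of the tFT-X12 degron library: putative degron peptides plus stable controls, 12 aa, fused to the C-terminus of a sfGFP-mCherry timer. Cells are FACS-sorted into 8 mCherry/sfGFP bins and deep-sequenced. PSI runs from 0 (unstable) to 1 (stable). Backgrounds are wild type, das1Δ and doa10Δ at 30 °C, and wild type, das1Δ, cdc34-1 and cdc53-1 at 37 °C; 2-3 technical replicates each.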

[3] = genetic background: cdc34-1, temperature: 37 C
[4] = genetic background: cdc53-1, temperature: 37 C
[5] = genetic background: das1 deletion, temperature: 30 C
[6] = genetic background: das1 deletion, temperature: 37 C
[7] = genetic background: doa10 deletion, temperature: 30 C
[8] = genetic background: wild type, temperature: 30 C
[9] = genetic background: wild type, temperature: 37 C
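Note: PSI is a weighted mean of sequencing reads over stability bins, variants kept only with over 10 reads, mCherry proximal and sfGFP distal, peptide attached via GGGS linker.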

| Sequence | protein stability index (Saccharomyces cerevisiae [1]) | protein stability index (Saccharomyces cerevisiae [2]; [3]) | protein stability index (Saccharomyces cerevisiae [2]; [4]) | protein stability index (Saccharomyces cerevisiae [2]; [5]) | protein stability index (Saccharomyces cerevisiae [2]; [6]) | protein stability index (Saccharomyces cerevisiae [2]; [7]) | protein stability index (Saccharomyces cerevisiae [2]; [8]) | protein stability index (Saccharomyces cerevisiae [2]; [9]) |
| --- | --- | --- | --- | --- | --- | --- | --- | --- |
| GLVVWWLSGWLW | 0.373 ± 0.0071 | 0.249 ± 0.034 | 0.435 ± 0.05 | 0.269 ± 0.023 | 0.428 ± 0.0078 | 0.221 ± 0.026 | 0.276 ± 0.025 | 0.425 ± 0.048 |
| GMGHLSNVCLKT | 0.597 ± 0.17 | 0.689 ± 0.008 | 0.765 ± 0.0086 | 0.639 ± 0.012 | 0.726 ± 0.0093 | 0.636 ± 0.026 | 0.645 ± 0.019 | 0.706 ± 0.027 |
| GRLDHWNKHKYI | 0.184 ± 0.0029 | 0.528 ± 0.031 | 0.687 ± 0.032 | 0.64 ± 0.0064 | 0.783 ± 0.024 | 0.104 ± 0.013 | 0.0786 ± 0.026 | 0.14 ± 0.032 |
| GRWVLALCLVCG | 0.289 ± 0.0051 | 0.165 ± 0.0068 | 0.199 ± 0.0044 | 0.202 ± 0.026 | 0.312 ± 0.0066 | 0.164 ± 0.0086 | 0.194 ± 0.026 | 0.273 ± 0.0044 |
| GSLLNLSLRWLV | 0.242 ± 0.0062 | 0.626 ± 0.012 | 0.7289 ± 0.0067 | 0.6638 ± 0.0066 | 0.739 ± 0.0077 | 0.13932 ± 9.1e-05 | 0.138 ± 0.022 | 0.226 ± 0.0075 |
| GTMGWYSISRRL | 0.519 ± 0.078 | 0.692 ± 0.052 | 0.754 ± 0.025 | 0.681 ± 0.013 | 0.746 ± 0.012 | 0.6585 ± 0.004 | 0.646 ± 0.022 | 0.729 ± 0.0091 |
| GVCRFFCLVFCS | 0.466 ± 0.036 | 0.544 ± 0.02 | 0.5349 ± 0.0021 | 0.507 ± 0.049 | 0.515 ± 0.018 | 0.494 ± 0.013 | 0.441 ± 0.018 | 0.4723 ± 0.003 |
| GVCSFFVCVFFV | 0.291 ± 0.0064 | 0.195 ± 0.0042 | 0.319 ± 0.034 | 0.233 ± 0.036 | 0.41 ± 0.005 | 0.162 ± 0.008 | 0.177 ± 0.024 | 0.303 ± 0.0089 |
| GVFLVWWVGFWV | 0.374 ± 0.057 | 0.257 ± 0.025 | 0.401 ± 0.021 | 0.25 ± 0.035 | 0.431 ± 0.014 | 0.223 ± 0.0082 | 0.238 ± 0.029 | 0.455 ± 0.047 |
| GVLFHIVLHFMV | 0.27 ± 0.061 | 0.24 ± 0.045 | 0.277 ± 0.01 | 0.255 ± 0.028 | 0.391 ± 0.0053 | 0.199 ± 0.017 | 0.194 ± 0.023 | 0.305 ± 0.029 |
| GVMSICRWMISV | 0.374 ± 0.014 | 0.415 ± 0.0094 | 0.427 ± 0.012 | 0.325 ± 0.042 | 0.4914 ± 0.0034 | 0.263 ± 0.013 | 0.275 ± 0.035 | 0.439 ± 0.017 |
| GVQFRRPLIPIY | 0.445 ± 0.082 | 0.514 ± 0.0065 | 0.4877 ± 0.0027 | 0.358 ± 0.03 | 0.5467 ± 0.0036 | 0.325 ± 0.011 | 0.35 ± 0.025 | 0.517 ± 0.0099 |
| GVVCVLGFALFV | 0.413 ± 0.08 | 0.403 ± 0.026 | 0.507 ± 0.042 | 0.293 ± 0.046 | 0.495 ± 0.0051 | 0.28 ± 0.014 | 0.3 ± 0.028 | 0.473 ± 0.0053 |
| GWGVFFVMRIQV | 0.34 ± 0.024 | 0.1751 ± 0.00088 | 0.259 ± 0.055 | 0.225 ± 0.02 | 0.367 ± 0.017 | 0.197 ± 0.016 | 0.198 ± 0.024 | 0.301 ± 0.029 |
| GWLVGLGLVFFT | 0.514 ± 0.03 | 0.586 ± 0.018 | 0.664 ± 0.01 | 0.513 ± 0.033 | 0.661 ± 0.014 | 0.488 ± 0.02 | 0.499 ± 0.031 | 0.618 ± 0.011 |
| GWRRRIWLCRLQ | 0.505 ± 0.041 | 0.575 ± 0.018 | 0.741 ± 0.038 | 0.7 ± 0.013 | 0.7939 ± 0.004 | 0.41 ± 0.02 | 0.412 ± 0.036 | 0.662 ± 0.054 |
| GYLFICSWCEGF | 0.427 ± 0.048 | 0.46 ± 0.059 | 0.503 ± 0.01 | 0.363 ± 0.023 | 0.503 ± 0.029 | 0.352 ± 0.028 | 0.346 ± 0.018 | 0.4849 ± 0.0034 |
| HDRLRGVFWRVP | 0.439 ± 0.014 | 0.669 ± 0.066 | 0.739 ± 0.01 | 0.655 ± 0.038 | 0.74321 ± 0.00071 | 0.263 ± 0.015 | 0.308 ± 0.032 | 0.5752 ± 0.0019 |
| HGVRLHTVWVGG | 0.4918 ± 0.0038 | 0.55 ± 0.029 | 0.559 ± 0.026 | 0.413 ± 0.011 | 0.597 ± 0.0065 | 0.347 ± 0.0076 | 0.4 ± 0.033 | 0.5437 ± 0.005 |
| HLKKKLKIRLIN | 0.238 ± 0.031 | 0.488 ± 0.16 | 0.685 ± 0.02 | 0.645 ± 0.011 | 0.698 ± 0.036 | 0.108 ± 0.01 | 0.116 ± 0.02 | 0.171 ± 0.018 |
